Test results published in patent publication US20100316632A1.

Legend:
[1] = molecular target: CD40 receptor (human), on CD14+ monocytes (human) (UniProt P25942)
[2] = molecular target: CD40 receptor (human), on CD14+ monocytes (human) (UniProt P25942); remark: listed apart in the source

TNF-α production by CD14+ monocytes (ELISA of supernatant after 24 h) [1]: 449 pg/mL
IL-1β production by purified CD14+ cells of MDS patients (ELISA) [2]: 18 pg/mL
IL-6 production by purified CD14+ cells of MDS patients (ELISA) [2]: 1210 pg/mL
IL-10 production by purified CD14+ cells of MDS patients (ELISA) [2]: 1650 pg/mL
Substance: clone 64 (agonist anti-human CD40 monoclonal antibody, PanGenetics, The Netherlands)
